Publication PMC5935710, “Structure and mechanism of the two-component α-helical pore-forming toxin YaxAB” (Nature Communications, 2018)

Columns and labels:
YaxA [1] = molecular target: T1, YaxA (Y. enterocolitica, UniProt A1JM51 1-411); assay: SEC; purified YaxA and YaxB mixed in solution; ratio of the two in the complex from SDS-PAGE band intensities; settings: both partners purified
T1 construct: YaxA of Yersinia enterocolitica serovar 8, biovar 1 (ATCC 23715), ORF YE1984; 45.9 kDa; native mass spectrometry verified that the full-length protein was purified; the ORF was amplified from cDNA of ATCC 23715; The pore model 6EL1 holds YaxA residues 45-153 and 169-410; also called YaxA^WT; WT YaxA; not shown: His6, N-terminal, cleaved; SUMO, N-terminal, cleaved
T1 sequence: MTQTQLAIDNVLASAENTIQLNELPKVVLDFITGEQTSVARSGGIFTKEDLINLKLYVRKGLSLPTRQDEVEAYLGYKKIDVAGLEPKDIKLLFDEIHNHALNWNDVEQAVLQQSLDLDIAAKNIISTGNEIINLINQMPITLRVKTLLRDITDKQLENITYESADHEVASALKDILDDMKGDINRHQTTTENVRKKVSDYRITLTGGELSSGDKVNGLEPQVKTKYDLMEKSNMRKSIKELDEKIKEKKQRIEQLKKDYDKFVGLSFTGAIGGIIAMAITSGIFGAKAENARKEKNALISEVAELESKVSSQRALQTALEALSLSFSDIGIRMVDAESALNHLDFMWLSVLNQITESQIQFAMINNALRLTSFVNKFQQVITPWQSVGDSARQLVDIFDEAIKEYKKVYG

[2] = molecular target: the molecule itself; assay: cryo-EM structure; 1 mg each of YaxA and YaxB mixed at room temperature, Cymal-6 treated, Superose 6, exchanged into amphipol A8-35; 2 mg/mL; C10 symmetry imposed, 6.1 Å; a C9 class at 7.6 Å
YaxA [3] = molecular target: T1, YaxA; assay: negative-stain EM; YaxA, then YaxB (1.5-fold molar excess) on human erythrocyte ghosts; pores extracted with 1.5% Cymal-6, purified on Superose 6 and a 10-40% sucrose gradient; 0.1 mg/mL on grids, uranyl formate stain; settings: both partners purified

B1: YaxB (natural protein)
chain: MAEISTFPHSGLSYPDINFKIFSQGVKNISHLAQFKTTGVEVLQEKALRVSLYSQRLDVIVRESLSSLQVKLENTLALTYFTTLEEIDEALISQDIDEESKSEMRKERINIIKNLSNDITQLKQLFIEKTELLDKSSSDLHNVVIIEGTDKVLQAEQLRQKQLTEDIATKELERKEIEKKRDKIIEALDVIREHNLVDAFKDLIPTGENLSELDLAKPEIELLKQSLEITKKLLGQFSEGLKYIDLTDARKKLDNQIDTASTRLTELNRQLEQSEKLIAGVNAVIKIDQEKSAVVVEAEKLSRAWHIFIHEITALQGTSLNEVELSKPLIKQQIYLESLIKQLI
notes: YaxB of Yersinia enterocolitica serovar 8, biovar 1 (ATCC 23715), ORF YE1985; 39.3 kDa; the ORF was cloned behind His6 and a TEV site; the ORF was amplified from cDNA of ATCC 23715; The pore model 6EL1 holds YaxB residues 12-343; also called YE1985; not shown: His6, N-terminal, cleaved
- stoichiometry N (YaxA [1]): 1 YaxA:YaxB
- stoichiometry N [2]: 10
- radial spokes (YaxA–YaxB dimers) per complex (YaxA [3]): 11 fold symmetry
